Changes are numbered by the printed parent chain.
B1: 14B3 (antibody, human IgG1, kappa, V domains shown)
VH: QSLEESGGDLVKPGASLTLTCTASGFSSSSGYYICWVRQAPGKGLEWIACIGAGSGAAYYASWAKGRFTMSKTSSTTVTLQMTSLTAADTATYFCARGGFVVGGGYGGYCFNLWGPGTLVTVSS
VL: AQVLTQTASSVSATVGGTVTISCQSSESVDVNNLAWYQQKPGQPPKLLIYSASTLASGVPSRFKGSGSGTQFTLTVSDLESADAATYYCAGGYSGNIFAFGGGTAVVVKR
notes: Rabbit-human chimeric anti-ICAM1: rabbit VH and VL on human IgG1 and kappa constant regions
B2: 8E5 (antibody, human IgG1, kappa, V domains shown)
VH: QSLEESGGRLVTPGTPLTLTCTVSGFSLSNYAMNWVRQAPGKGLEWIGYISTRGSAYYASWAKGRFTISKTSTTVDLKMTSPTTEDTATYFCARGDLVGGGYIRGSFDPWGPGTLVTVSS
VL: AQVLTQTPSPVSAAVGGTVTINCQSSQSVVSDKLLSWFQQKPGQPPKLLIYGASTLASGVPSRFKGSGSGTQFTLTISDVQSDDAATYYCAGAYSTDSDIRAFGGGTEVVVKR
notes: as for B1
B3: 3D8 (antibody, human IgG1, kappa, V domains shown)
VH: QSLEESGGDLVKPGASLTLTCTASGFSFSSSYWMCWVRQAPGKGLEWIACIDGGSAGYNYYATWAKGRFTISKTSSTTVTLQMTSLTAADRATYFCARGPGSSYNLWGPGTLVTVSS
VL: DIVMTQTPASVEAAVGGTVTIKCQASQSISSYLSWYQQKPGQPPKLLIYRASTLASGVPSRFKGSGSGTEFTLTISDLESADAATYYCQSYVFGSSRSYDNAFGGGTEVVVKR
notes: as for B1
B4: 6G8 (antibody, human IgG1, kappa, V domains shown)
VH: QSVEESGGGLVKPGGTLTLTCTVSGFSLSSYAMGWVRQAPGKGLEYIGIIGSSGSTYYATWAKGRFTISKTSTTVDLKITSPTTEDTATYFCVRDPYDSYDAAYRLWGPGTLVTVSS
VL: AYDMSQTPASVEVAVGGTVTIKCQASQSIYSYLSWYQQKPGQRPKLLIYDASKLASGVPSRFTGSGSGTEFTLTISGVQSDDAATYYCQQAYSSSNVDNVFGGGTEVVVKR
notes: as for B1
B5: 2E3 (antibody, human IgG1, kappa, V domains shown)
VH: B4 VH with T60S, Y100F, D101G, A102D, A103G
VL: B4 VL with S5T, Q27E, S28N, S31R, S34L, P40L, K45S, T63K, V100A
notes: as for B1
B6: 1E2 (antibody, human IgG1, kappa, V domains shown)
VH: QSVEESGGRLVTPGTPLTLTCTVSGIDLNSYAMGWVRQAPGKGLKYIGIMTSGGNIYYANWAKGRFTISKTSTTVDLRITSPTTEDTATYFCAREREFYGGGTSGSRLDLWGQGTLVTVSS
VL: AYDMTQTPASVEAAVGGTVTIKCQASQSIYNFLNWYQQKPGQPPKLLIYYASTLAFGVPSRFKGSGSGTEYTLTISGVESADAATYYCQQGWNSGILDNSFGGGTEVVVKR
notes: Rabbit-human chimeric anti-CD38: rabbit VH and VL on human IgG1 and kappa constant regions
B7: 21G2 (antibody, human IgG1, kappa, V domains shown)
VH: QSVEESGGRLVTPGTPLTLTCTVSGFSLSNYGVSWVRQAPGKGLEWIGYILTSGGTYYANWAQGRFTISKTSTTVDLKITSPTTEDTATYFCGRPKDSDSSAFVSLWGPGTLVTVSS
VL: DVVMTQTPASVSEPVGGTVTINCQASESIYSNLAWYQQKPGQPPKLLIYKASTLASGVSSRFKGSGSGTEFTLTISDLESADAATYYCQANHMIVIYGNGFGGGTEVVVKR
notes: as for B6
B8: 21H9 (antibody, human IgG1, kappa, V domains shown)
VH: QSLEESGGDLVKPGASLTLTCTASGFSATTYYYYMCWVRQAPGKGLEWIACTYTGDGATYYATWAKGRFTISKTSSTTVTLQMTSLTAADTATYFCARSADNSIYYGYFNLWGPGTLVTVSS
VL: AFELTQTPFSVSEPVGGTVTINCQASENIYSSLAWYQQKPGQPPKLLIYRASTLASGVPSRFSGSGSGTEFTLTISGVQSDDAATYYCQTYYGSTSTGFTFGGGTEVVVKR
notes: as for B6
B9: 20B5 (antibody, human IgG1, kappa, V domains shown)
VH: QSLEESGGDLVKPGASLTLTCTASGFSFSSRYWICWVRQAPGKGLEWIACIVAGTTNTYYASWAKGRFTISKTSSTTVTLQMTSLTAADTATYFCAGDPRTGSNVGYFNLWGPGTLVTVSS
VL: AQVLTQTPSPVSAAVGGTVTINCQASQSVYNNNYLAWFQQKPGQPPKLLIYSASTLASGVPSRFKGSGSGTQFTLTISEVQSDDAATYYCQAYYSGGIYAFGGGTEVVVKR
notes: as for B6
B10: 22H6 (antibody, human IgG1, kappa, V domains shown)
VH: QSVEESGGRLVTPGTPLTLTCTVSGFSLSNNAISWVRQAPGKGLQWIGSIYGSGNTYYATWAKGRFTVSKTSTTVDLKINSPTTEDTATYFCAREGAGSSWGFNLWGPGTLVTVSS
VL: AQVLTQTASSVSAAVGGTVTISCQSSESVYKNNYLSWYQQKPGQPLKCLIYSASTLASGVPSRFKGSGSGTQFTLTISDLESDDAATYYCAGGYSGNINGFGGGTEVVVKR
notes: as for B6
B11: 26D4 (antibody, human IgG1, kappa, V domains shown)
VH: QEQLEESGGDLVKPEGSLTLTCTASGFSFSNDAICWVRQAPGKGLEWIACIYAGSGNTYYASWAKGRFSISKTSSTTVTLQMTSLTVADTATYFCASADTIDYFNLWGPGTLVTVSS
VL: B9 VL with F38Y, S52R, T55N, K65S, G66A, S95R, G96D, G97P, I98T, Y99T
notes: as for B6

These binders were tested against T1, Rhesus-ICAM1 (rhesus, UniProt Q5NKV6 28-480, limits assumed) (assay: ELISA: plate coated with 1 ug/ml recombinant rhesus ICAM1 ECD, serially diluted antibody, OD450).
T1 sequence (looked up): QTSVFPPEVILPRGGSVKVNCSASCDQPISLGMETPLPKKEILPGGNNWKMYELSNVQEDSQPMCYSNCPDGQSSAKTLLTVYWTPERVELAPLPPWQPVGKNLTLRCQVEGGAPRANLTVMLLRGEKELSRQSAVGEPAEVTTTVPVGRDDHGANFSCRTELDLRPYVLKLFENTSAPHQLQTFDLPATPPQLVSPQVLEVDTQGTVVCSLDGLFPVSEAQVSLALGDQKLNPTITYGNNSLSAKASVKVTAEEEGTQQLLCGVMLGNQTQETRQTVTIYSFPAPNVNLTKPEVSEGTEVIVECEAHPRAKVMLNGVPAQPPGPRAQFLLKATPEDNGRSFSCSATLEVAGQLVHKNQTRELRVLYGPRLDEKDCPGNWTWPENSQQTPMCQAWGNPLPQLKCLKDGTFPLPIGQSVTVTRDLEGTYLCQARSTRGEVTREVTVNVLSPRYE
Method: (§1) The plate was coated overnight at 4° C. with 1 μg/ml recombinant CD38 or ICAM1. After washing 3 times, the plate was blocked with 300 μl 1% BSA in PBST at 37° C. for 1 hour. Serially diluted antibodies were added and incubated at 37° C. for 1 hour. The plate was then washed 4 times with PBST and incubated with 1:5000 diluted 2nd antibody (Sigma, Cat #A0293) at 37° C. for 1 hour.
With B1 the “EC50 (read off the curve)” value was about 0.04 nM.
In the case of B2, the “EC50 (read off the curve)” value is reported as about 0.04 nM.
With B3 the “EC50 (read off the curve)” value was about 0.04 nM.
B4 was tested, and the “EC50 (read off the curve)” value was about 0.04 nM.
For B5, the “EC50 (read off the curve)” value was about 0.04 nM.

What follows are binders tested against T2, recombinant human CD38 (human, UniProt P28907 43-300, limits assumed) (assay: ELISA: plate coated with 1 ug/ml recombinant human CD38 ECD, serially diluted antibody, OD450).
Method: as §1
With B6 the “EC50 (read off the curve)” value was about 0.06 nM.
With B7 the “EC50 (read off the curve)” value was about 0.06 nM.
With B8 the “EC50 (read off the curve)” value was about 0.06 nM.

These binders were tested against T3, CD38 on the surface of Daudi cells (human, UniProt P28907 1-300) (assay: flow cytometry, Daudi cells;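 note: purified antibodies incubated with Daudi cells for 1 h at 4 °C, bound antibody detected by fluorescent secondary antibody and read by flow cytometry as MFI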).
T3 construct: whole, on cells
Method: (§2) Harvested cells were centrifuged at 2000 rpm for 5 min and resuspended with 10-15 ml ice-cold culture medium. Cells were counted and then 3×10⁶ cells were resuspended per mL of blocking buffer (PBS plus 2% FBS). 100 μl of the cell suspension was dispensed into each well of a 96-well plate and incubated at room temperature for 10-20 min. […] While incubating, purified antibodies were diluted to the desired dilution with blocking buffer. After a 10-20 minutes incubation, cells were centrifuged for 5 min at 2000 rmp in a refrigerated centrifuge. Blocking buffer was aspirated, and cells were resuspended in 100 μl/well diluted antibodies and incubated for 1 hour at 4° C. The cells were then washed 3 times with PBS plus 2% FBS. After the final wash, the cells were resuspended in 100 μl 1:500 diluted secondary antibody (Invitrogen, Cat #: A10631) and incubated for 1 hour at 4° C. in the dark. The cells were then washed 3 times with 200 μl PBS by centrifuging at 2000 rpm for 5 min. After the last wash, the cells were resuspended in 300 μl cold PBS and analyzed on a FACSVerse™ (BD Biosciences) flow cytometer.
For B6, the EC50 was 0.497 nM and the “Max Binding MFI” value was 2130 MFI.
For B7, the EC50 was 1.13 nM and the “Max Binding MFI” value was 2150 MFI.
With B8 the EC50 was 1.2 nM and the “Max Binding MFI” value was 1930 MFI.
With B9 the EC50 was 0.373 nM and the “Max Binding MFI” value was 816 MFI.
For B10, the EC50 was 1.32 nM and the “Max Binding MFI” value was 782 MFI.
B11 was tested, and the EC50 was 4.06 nM and the “Max Binding MFI” value was 577 MFI.

The binders below were run against T2, recombinant human CD38 (assay: SPR (Biacore 8K), antibody captured, antigen injected;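 note: antibodies held on a CM5 chip through anti-human IgG Fc, antigen in 3-fold serial dilutions, 1 min association then 10 min dissociation at 25 °C, 1:1 Langmuir global fit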).
Method: (§3) The binding kinetics of the anti-CD38 and anti-ICAM1 antibodies were evaluated on a Biacore 8K instrument (GE Healthcare). Biacore Series S CM5 sensor chips were immobilized with monoclonal mouse anti-human IgG (Fc) antibody (human antibody capture kit from GE Healthcare). Antibodies were captured on each flow cell. Serial 3-fold dilutions of each antigen were injected at a flow rate of 30 μl/min. Each sample was analyzed with 1 min association and 10 min dissociation at room temperature (25° C.). After each injection, the chip was regenerated using 3M MgCl₂. A 1:1 Langmuir model of simultaneous fitting of kₒₙ and koff was used for kinetics analysis.
With B6 the Kd was 1.62 nM, the koff was 0.000388 s⁻¹ and the kon was 240000 M⁻¹ s⁻¹.
B7 gave a Kd of 0.19 nM, a koff of 3.1e-05 s⁻¹ and a kon of 167000 M⁻¹ s⁻¹.
With B8 the Kd was 0.004 nM, the koff was 5.99e-07 s⁻¹ and the kon was 166000 M⁻¹ s⁻¹.
B9 was tested, and the Kd was 98.5 nM, the koff was 0.0341 s⁻¹ and the kon was 346000 M⁻¹ s⁻¹.
With B10 the Kd was 65.4 nM, the koff was 0.021 s⁻¹ and the kon was 321000 M⁻¹ s⁻¹.
B11 showed a Kd of 510 nM, a koff of 0.102 s⁻¹ and a kon of 200000 M⁻¹ s⁻¹.

These binders were tested against T4, cynomolgus CD38 ECD (cynomolgus, UniProt Q5VAN0 44-301, biotinylated on the AviTag during preparation) in the same assay as above.
T4 construct: also called Cyno-CD38; Avi-Cyno CD38 ECD
Method: as §3
B6 was tested, and the Kd was 68.1 nM, the koff was 0.0124 s⁻¹ and the kon was 182000 M⁻¹ s⁻¹.
B7 showed a Kd of 1.71 nM, a koff of 0.000432 s⁻¹ and a kon of 253000 M⁻¹ s⁻¹.
B8 was tested, and the Kd was 0.76 nM, the koff was 0.00014 s⁻¹ and the kon was 184000 M⁻¹ s⁻¹.
Work on B9 yielded a Kd of 54.8 nM, a koff of 0.0322 s⁻¹ and a kon of 588000 M⁻¹ s⁻¹.
For B10, the Kd was 62.4 nM, the koff was 0.0352 s⁻¹ and the kon was 564000 M⁻¹ s⁻¹.
B11 showed a Kd of 43.8 nM, a koff of 0.0313 s⁻¹ and a kon of 715000 M⁻¹ s⁻¹.

Each binder was assayed against T4, cynomolgus CD38 ECD (assay: ELISA: plate coated with 1 ug/ml recombinant cynomolgus CD38 ECD, serially diluted antibody, OD450).
Method: as §1
With B6 the “EC50 (read off the curve)” value was about 0.06 nM.
B7 was tested, and the “EC50 (read off the curve)” value was about 0.06 nM.
For B8, the “EC50 (read off the curve)” value was about 0.06 nM.
For B9, the “EC50 (read off the curve)” value was about 0.06 nM.
With B10 the “EC50 (read off the curve)” value was about 0.06 nM.
B11 was tested, and the “EC50 (read off the curve)” value was about 0.06 nM.

These binders were tested against T1, Rhesus-ICAM1 (assay: SPR (Biacore 8K), antibody captured, antigen injected).
Method: as §3
B1 gave a Kd of 3.2 nM, a koff of 0.000596 s⁻¹ and a kon of 186000 M⁻¹ s⁻¹.
With B2 the Kd was 7.06 nM, the koff was 0.00189 s⁻¹ and the kon was 268000 M⁻¹ s⁻¹.
Work on B3 yielded a Kd of 17.3 nM, a koff of 0.0348 s⁻¹ and a kon of 2.01e+06 M⁻¹ s⁻¹.
B4 was tested, and the Kd was 0.85 nM, the koff was 0.00126 s⁻¹ and the kon was 1.47e+06 M⁻¹ s⁻¹.
Binder B5 has a Kd of 1.17 nM, a koff of 0.000387 s⁻¹ and a kon of 330000 M⁻¹ s⁻¹.

Each binder was assayed against T5, recombinant human ICAM1 (human, UniProt P05362 28-480, limits assumed) in the same assay as above.
T5 sequence (P05362 28-480 limits assumed): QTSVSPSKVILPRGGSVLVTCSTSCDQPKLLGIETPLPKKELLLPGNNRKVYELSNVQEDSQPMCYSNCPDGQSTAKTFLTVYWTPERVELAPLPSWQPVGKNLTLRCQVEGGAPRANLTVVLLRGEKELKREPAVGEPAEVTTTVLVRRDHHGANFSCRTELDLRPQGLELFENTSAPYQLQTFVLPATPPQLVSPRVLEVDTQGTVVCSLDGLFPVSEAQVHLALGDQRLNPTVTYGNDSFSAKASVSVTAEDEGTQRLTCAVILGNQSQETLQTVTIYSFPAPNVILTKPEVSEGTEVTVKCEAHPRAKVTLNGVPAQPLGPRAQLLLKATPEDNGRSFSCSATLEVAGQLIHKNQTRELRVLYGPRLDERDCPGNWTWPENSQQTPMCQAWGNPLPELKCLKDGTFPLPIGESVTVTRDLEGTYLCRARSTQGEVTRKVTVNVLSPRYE
Method: as §3
B1 gave a Kd of 2.85 nM, a koff of 0.00027 s⁻¹ and a kon of 94800 M⁻¹ s⁻¹.
B2 was tested, and the Kd was 24.4 nM, the koff was 0.00361 s⁻¹ and the kon was 148000 M⁻¹ s⁻¹.
For B3, the Kd was 16.8 nM, the koff was 0.00909 s⁻¹ and the kon was 540000 M⁻¹ s⁻¹.
Binder B4 has a Kd of 1.7 nM, a koff of 0.000533 s⁻¹ and a kon of 314000 M⁻¹ s⁻¹.
In the case of B5, the Kd is reported as 0.65 nM, the koff is reported as 0.000149 s⁻¹ and the kon is reported as 227000 M⁻¹ s⁻¹.

The binders below were run against T6, ICAM1 on the surface of DU145 cells (human, UniProt P05362 28-532) (assay: flow cytometry, DU145 cells;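 note: purified antibodies in dilution series bound to cells for 1 h at 4 °C, detected with a fluorescent secondary antibody (1 h, 4 °C, dark), read by flow cytometry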).
T6 construct: whole, on cells
T6 sequence (P05362 28-532): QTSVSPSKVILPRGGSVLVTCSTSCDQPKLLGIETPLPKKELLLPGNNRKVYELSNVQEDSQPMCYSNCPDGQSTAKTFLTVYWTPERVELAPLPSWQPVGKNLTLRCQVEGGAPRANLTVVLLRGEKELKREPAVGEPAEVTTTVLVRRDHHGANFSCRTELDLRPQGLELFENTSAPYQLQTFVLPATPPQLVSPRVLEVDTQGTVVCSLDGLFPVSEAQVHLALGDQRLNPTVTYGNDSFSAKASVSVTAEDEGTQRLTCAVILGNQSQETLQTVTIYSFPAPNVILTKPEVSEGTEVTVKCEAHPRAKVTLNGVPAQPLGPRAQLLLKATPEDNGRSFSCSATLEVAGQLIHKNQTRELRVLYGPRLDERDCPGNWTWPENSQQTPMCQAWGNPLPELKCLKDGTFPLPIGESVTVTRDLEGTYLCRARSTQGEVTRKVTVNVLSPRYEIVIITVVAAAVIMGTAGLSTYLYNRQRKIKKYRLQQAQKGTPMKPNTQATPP
Method: as §2
B1 was tested, and the EC50 was 6.01 nM and the “Max Binding MFI” value was 2940 MFI.
In the case of B2, the EC50 is reported as 0.124 nM and the “Max Binding MFI” value is reported as 9190 MFI.
In the case of B3, the EC50 is reported as 0.208 nM and the “Max Binding MFI” value is reported as 6430 MFI.
With B4 the EC50 was 2.23 nM and the “Max Binding MFI” value was 4190 MFI.
With B5 the EC50 was 1.59 nM and the “Max Binding MFI” value was 3980 MFI.

Each binder was assayed against T5, recombinant human ICAM1 (assay: ELISA: plate coated with 1 ug/ml recombinant human ICAM1 ECD, serially diluted antibody, OD450).
Method: as §1
B1 was tested, and the “EC50 (read off the curve)” value was about 0.04 nM.
In the case of B2, the “EC50 (read off the curve)” value is reported as about 0.04 nM.
In the case of B3, the “EC50 (read off the curve)” value is reported as about 0.04 nM.
With B4 the “EC50 (read off the curve)” value was about 0.04 nM.
B5 was tested, and the “EC50 (read off the curve)” value was about 0.04 nM.
